Laboratory results taken from paper PMC5138414, “Structural Basis for Redox Regulation of Cytoplasmic and Chloroplastic Triosephosphate Isomerases from Arabidopsis thaliana” (Frontiers in Plant Science, 2016).
Residue numbers refer to the chain shown, from its start. In names and notes the source's numbering stands.

Target: the molecule itself
Test: SEC; analytical size-exclusion chromatography, Superdex 75 10/300GL, calibrated with Bio-Rad gel filtration standard, 0.5 mL/min, 100 mM TEA pH 7.4, 10 mM EDTA, 1 mM DTT; dimer of identical subunits

B1: cTPI-C218S (enzyme, Arabidopsis thaliana, UniProt P48491 1-254, looked up)
chain: MARKFFVGGNWKCNGTAEEVKKIVNTLNEAQVPSQDVVEVVVSPPYVFLPLVKSTLRSDFFVAAQNCWVKKGGAFTGEVSAEMLVNLDIPWVILGHSERRAILNESSEFVGDKVAYALAQGLKVIACVGETLEEREAGSTMDVVAAQTKAIADRVTNWSNVVIAYEPVWAIGTGKVASPAQAQEVHDELRKWLAKNVSADVAATTRIIYGGSVNGGNSKELGGQADVDGFLVGGASLKPEFIDIIKAAEVKKSA
notes: cytoplasmic triosephosphate isomerase, Arabidopsis thaliana, At3g55440, point mutant; Made by site-directed mutagenesis of the cTPI construct; source: E. coli BL21 (DE3) Δtpi, purified (IMAC His-Trap FF, Superdex 75)
binding result: binds

B2: cTPI-C13S (enzyme, Arabidopsis thaliana, UniProt P48491 1-254, looked up)
chain: B1 chain with C13S, S218C
notes: as for B1
stoichiometry N: 2

B3: cTPI-C13S/C218S (enzyme, Arabidopsis thaliana, UniProt P48491 1-254, looked up)
chain: B1 chain with C13S
notes: cytoplasmic triosephosphate isomerase, Arabidopsis thaliana, At3g55440, double mutant; Made by site-directed mutagenesis of the cTPI construct; also called cTPI double mutant; source: E. coli BL21 (DE3) Δtpi, purified (IMAC His-Trap FF, Superdex 75)
stoichiometry N: 2
